Source: PMC8764033, “Single-molecule analysis of specificity and multivalency in binding of short linear substrate motifs to the APC/C” (Nature Communications, 2022)
Where “and” joins values, the source holds several entries; their conditions need not be identical. Equal values may be shown once.

Assays:
APC/C = APC/C ubiquitylation assay; type: biochemical, yeast; details: listed as Hsl1^Halo
Procedure: APC/C ubiquitylation assays were performed as described previously. In short, APC/C was purified from yeast as described above using magnetic IgG beads and activated with a purified Cdh1 or Cdc20 activator. For all APC/C ubiquitylation assays, substrates were produced by in vitro translation with ^35S-Methionine (see Supplementary Table 5 for plasmids). Substrates were purified using magnetic IgG beads. E1 and E2 (Ubc4) were expressed in E. coli and purified as described previously[25],[42]. E2 was charged at 37 °C for 30 min (reaction contained 0.2 mg ml^−1 Uba1, 2 mg ml^−1 Ubc4, 2 mg ml^−1 methylated ubiquitin from Boston Biochem #Y-501, and 1 mM ATP). Charged E2 was added to a reaction containing activated APC/C and substrate. Reaction products were analyzed by SDS-PAGE and Phosphorimaging on a Typhoon 9400 Imager. […]

Cdh1^WD40 = molecular target: T1, Cdh1^WD40 (Saccharomyces cerevisiae, UniProt P53197); experiment: SMOR assay (single-molecule off-rate, TIRF), yeast Cdh1^WD40; type: binding; details: for mean dwell time: representative of two independent experiments, ± SE, ligand ≤1 nM, buffer C + BSA
T1 construct: the WD40 domains of yeast Cdh1 (aa 241–550; pNH144); made in house; host or cells: Sf9 insect cells (baculovirus)
T1 sequence (P53197 241-550): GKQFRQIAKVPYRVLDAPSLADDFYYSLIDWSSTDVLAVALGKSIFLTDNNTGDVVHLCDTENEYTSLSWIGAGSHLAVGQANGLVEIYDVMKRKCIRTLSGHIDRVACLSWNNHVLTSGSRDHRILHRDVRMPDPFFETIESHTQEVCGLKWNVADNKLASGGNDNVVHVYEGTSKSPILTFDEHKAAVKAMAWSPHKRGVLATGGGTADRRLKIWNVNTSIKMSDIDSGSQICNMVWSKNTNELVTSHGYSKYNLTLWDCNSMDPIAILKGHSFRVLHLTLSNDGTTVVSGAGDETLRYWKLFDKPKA
Procedure: Activators were cloned into the pFastBac HT A vector, with an N-terminal 2xStrep-Tag II. For some experiments, we constructed vectors for expression of the WD40 domains of yeast Cdh1 (aa 241–550; pNH144), human Cdh1 (aa 165–484; pNH164), or human Cdc20 (aa 162–484; pNH188). For SMOR, a C-terminal GFP tag was added. Bacmid plasmids are listed in Supplementary Table 3. Plasmids were transformed into DH10Bac cells, and purified Bacmid was used to transfect Sf9 cells to generate P1 baculovirus, which was used to generate P2 virus. SF9 cells were infected with the P2 virus for 48 h. Flash-frozen pellets were lysed by sonication or high-pressure homogenization in lysis buffer B (50 mM Tris-HCl pH 8, 150 mM KCl, 0.5 mM EDTA, 1 mM DTT, 10% Glycerol, EDTA-free protease inhibitor tablet, 1 µg ml^−1 pepstatin A). After the lysate was applied to the StrepTrap column, the column was washed with wash buffer B (lysis buffer B lacking protease inhibitors) and eluted in the same buffer containing 2.5 mM desthiobiotin.
For all SMOR experiments, 24 × 50 mm high precision glass coverslips (Bioscience Tools) and drilled microscope slides were passivated with a combination of PEG and PEG-biotin (coverslips) or PEG only (slides) following a previously published protocol for SiMPull[31]. Reaction chambers (~20 µl) were created using double-sided tape and epoxy. Protein was immobilized on the surface with 0.2 mg ml^−1 NeutrAvidin in buffer C (20 mM HEPES pH 7.5, 150 mM KCl, 10% glycerol, 0.05% Tween-20, 1 mM DTT). Excess NeutrAvidin was washed away and incubated with either biotin-conjugated mouse monoclonal anti-Strep-Tag II antibody (LSBio, Cat. No. LS-C203632-100) or biotin-conjugated rabbit polyclonal anti-GFP antibody (Rockland, Cat. No. 600-406-215) diluted in buffer C + BSA (0.1 mg ml^−1; Molecular Biology Grade Bovine Serum Albumin). Activator WD40 and activated APC/C (typically 50 µl containing about 65 ng APC/C, of which only a small fraction is immobilized on the glass) were immobilized using anti-Strep-Tag II, while APC/C alone was immobilized with anti-GFP. SMOR results were similar when performed in the buffer (wash buffer B) used in polarization anisotropy.
To capture dynamic protein–protein interactions, dye-labeled substrate diluted in buffer C + BSA was added to the chamber containing immobilized proteins. Interactions were imaged by TIRF microscopy as described below. For optimal signal-to-noise ratio, peptide concentration was no greater than 1 nM. Protein substrates included Hsl1 aa 667–872 and a C-terminal HaloTag followed by a TAP tag, and were produced by translation in rabbit reticulocyte lysates using TnT Quick Coupled Transcription/Translation System (Promega) (see Supplementary Table 5 for plasmids). Protein was purified with magnetic IgG beads and labeled on the bead with JF549 or JF646 dye so that unbound dye could be washed away. Purified dye-labeled protein was then cleaved from the beads using TEV protease. Before adding substrate to the reaction chamber, oxygen scavenging reagents were added (10 nM protocatechuate-3,4-dioxygenase, 2.5 mM protocatechuic acid, and 1 mM Trolox)[41]. A detailed description of the SMOR analysis pipeline is found in Supplementary Note 1.
Microscopy was performed with a Nikon Eclipse TE2000-E with Perfect Focus with a 100 × 1.49na oil, Apo TIRF DIC N2, 0.13-0.2, WD0.12 objective. Movies were recorded using the Andor iXon DU-897E-CSO. […]

B1: Hsl1^Halo KEN & D: Hsl1 fragment (amino acids 667–872) with C-terminal HaloTag, JF549-labeled (protein)
chain: QNSASKRSLYSLQSISKRSLNLNDLLVFDDPLPSKKPASENVNKSEPHSLESDSDFEILCDQILFGNALDRILEEEEDNEKERDTQRQRQNDTKSSADTFTISGVSTNKENEGPEYPTKIEKNQFNMSYKPSENMSGLSSFPIFEKENTLSSSYLEEQKPKRAALSDITNSFNKMNKQEGMRIEKKIQREQLQKKNDRPSPLKPIQ
modifications: JF549 or JF646 dye covalently bound to the HaloTag; left off: HaloTag, C-terminal, kept | TAP, C-terminal, cleaved
notes: Hsl1 fragment (amino acids 667–872) with C-terminal HaloTag, JF549-labeled
- ubiquitylation (in words) (APC/C): HaloTag does not affect ubiquitylation or binding
- Dwell Time (Cdh1^WD40; Supplementary Table 1, replicate 1 (movie listed first)): 73.520 ± 3.075 s
- Dwell Time (Cdh1^WD40; Supplementary Table 1, replicate 2 (movie listed second)): 56.447 ± 2.072 s
- mean dwell time (Cdh1^WD40): 56.4 ± 2 s and 56.4 s
- mean dwell time (Cdh1^WD40; listed as Hsl1 fragment): 56.4 ± 2 s
- fold increase in dwell time vs degron peptide alone (Cdh1^WD40; vs D (and KEN) box peptide): 100 fold
